The record followed here is PMC9544432 (Proteins, 2021).

Holding throughout (experiment): SPR
(In SPR one partner is held on a chip, and binding of the other changes the refractive index at the surface.)

For test [1], the target named is T1, VEGFR2(D2–3), domains 2 and 3 of the extracellular portion of human VEGFR2, wild type (human).
T1 chain: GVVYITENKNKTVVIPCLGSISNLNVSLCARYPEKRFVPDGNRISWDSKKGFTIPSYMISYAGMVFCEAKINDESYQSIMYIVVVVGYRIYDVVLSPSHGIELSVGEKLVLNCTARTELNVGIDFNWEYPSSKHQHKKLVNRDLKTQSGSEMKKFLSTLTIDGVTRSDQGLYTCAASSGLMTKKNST

In the next test the target is T2, VEGFR2(D2–3) D257A/E261A (human).
T2 chain: T1 chain with D124A, E128A

The target of test [2] is T1, VEGFR2(D2–3), domains 2 and 3 of the ….

Substitutions are numbered along the chain they refer to. Like-named read-outs stand apart in the source and are kept apart here.

B1: KD035 antigen-binding fragment (Fab) (Fab, V domains shown)
VH: EVQLLESGGGLVQPGGSLRLSCAASGFTFSWYVMGWVRQAPGKGLEWVSSIYPSGGATNYADSVKGRFTISRDNSKNTLYLQMNSLRAEDTAVYYCARGNYFDYWGQGTLVTVSS
VL: QSVLTQPPSVSVSPGQTASITCSGEKLGDEYASWYQQKPGQSPVLVIYQDNKRPSGIPERFSGSNSGNTATLTISGTQAMDEADYYCQAWDSSTLLFGGGTKLTVL
A word on the Kd: it is the concentration at which binding is half-saturated. Low readings indicate a tighter complex, high ones a looser complex. Take B1: the results for the Kd (in test [1]; with VEGFR2(D2–3) D257A/E261A; in test [2]) were 1.3 nM, 35.8 nM and 0.22 nM, respectively.
